Measured values taken from patent publication CN115772220A (WUHAN ABCLONAL INC, dated 2023).

Columns and labels:
[1] = molecular target: T1, 重组人IL-1β蛋白 (recombinant human IL-1β protein, as used in the Gator BLI experiments) (human, UniProt P01584 117-269); experiment: BLI (Gator Prime), affinity test
T1 construct: also called 人白介素-1β; 目的蛋白

[2] = molecular target: T2, 重组人白介素-1β，R&D货号:840170 (recombinant human IL-1β standard of the sandwich ELISA) (human, UniProt P01584 117-269); experiment: double-antibody sandwich ELISA, 10A10 capture and 1F3-biotin detection, human IL-1β at 100pg/mL
T2 construct: also called 标准样品; 人白介素-1β蛋白

[3] = molecular target: 重组人IL-1β蛋白 (recombinant human IL-1β protein, as used in the Gator BLI experiments) (human) (UniProt P01584); experiment: BLI (Gator Prime), IL-1β on the probe saturated with 1F3, 10A10 as second antibody

B1: 兔单克隆抗体1F3 (rabbit monoclonal antibody 1F3 against human IL-1β) (antibody, V domains shown)
VH: QSVEESGGRLVTPGTPLTLTCTVSGFSLSRNAISWVRQPPGKGLEWIGFISSYDTTYYATWAKGRFTISKTSTTVDLKIASPTTEDTATYFCARETGADNNSNFDIWGPGTLVTVSS
VL: AQVLTQTPSPVSAAVGGTVTINCQSSQSVSHNNWLAWYQQKPGQPPKLLIYDASKLASGVSSRFRGSGSGTQFTLTISGVQCDDAATYYCQGETFCSSADCNAFGGGTELVVKG
notes: In the BLI experiments it was unlabelled; also called 兔抗Human IL-1β单克隆抗体A; 1F3-biotin
- binding result [1]: binds
- binding result [2]: binds

B2: 兔单克隆抗体10A10 (rabbit monoclonal antibody 10A10 against human IL-1β) (antibody, V domains shown)
VH: QSVEESGGRLVTPGTPLTLTCTVSGFSLSTYAMSWVRQAPGKGLEWIGIISGSGNTAYASWAKGRFTISKTSTTVDLKMTSPTTEDTATYFCARSYEDYANIWGPGTLVTVSS
VL: AQVLTQTPSSVSAAVGGTVTINCQASQSLYNNNELSWYQQKPGQPPKLLIYKASTLASGVSSRFKGSGSGTQFTLTISGVQCDDAATYYCQGDYSCRIADCYAFGGGTEVVVKG
- shift值 [3]: 0.214
